Test results taken from paper PMC5882628, “Development of a Cell-Based Assay to Assess Binding of the proNGF Prodomain to Sortilin” (Cellular and Molecular Neurobiology, 2017).
Entries after “also recorded” stand apart in the source; their conditions may differ.

Assays:
sortilin = molecular target: T1, sortilin (Homo sapiens, UniProt Q99523); assay: GSTpro internalization: acid wash (PBS, pH 2.0) before fixation; format: cell-based; conditions: PBS pH 2.0 immediately before fixation
T1 construct: They were transfected with plasmids either encoding wild type sortilin, or sortilin with a mutation that renders it endocytosis deficient; expressed in transfected cells; host or cells: HEK 293 cells, transient transfection (lipofectamine)
T1 sequence (Q99523 78-831): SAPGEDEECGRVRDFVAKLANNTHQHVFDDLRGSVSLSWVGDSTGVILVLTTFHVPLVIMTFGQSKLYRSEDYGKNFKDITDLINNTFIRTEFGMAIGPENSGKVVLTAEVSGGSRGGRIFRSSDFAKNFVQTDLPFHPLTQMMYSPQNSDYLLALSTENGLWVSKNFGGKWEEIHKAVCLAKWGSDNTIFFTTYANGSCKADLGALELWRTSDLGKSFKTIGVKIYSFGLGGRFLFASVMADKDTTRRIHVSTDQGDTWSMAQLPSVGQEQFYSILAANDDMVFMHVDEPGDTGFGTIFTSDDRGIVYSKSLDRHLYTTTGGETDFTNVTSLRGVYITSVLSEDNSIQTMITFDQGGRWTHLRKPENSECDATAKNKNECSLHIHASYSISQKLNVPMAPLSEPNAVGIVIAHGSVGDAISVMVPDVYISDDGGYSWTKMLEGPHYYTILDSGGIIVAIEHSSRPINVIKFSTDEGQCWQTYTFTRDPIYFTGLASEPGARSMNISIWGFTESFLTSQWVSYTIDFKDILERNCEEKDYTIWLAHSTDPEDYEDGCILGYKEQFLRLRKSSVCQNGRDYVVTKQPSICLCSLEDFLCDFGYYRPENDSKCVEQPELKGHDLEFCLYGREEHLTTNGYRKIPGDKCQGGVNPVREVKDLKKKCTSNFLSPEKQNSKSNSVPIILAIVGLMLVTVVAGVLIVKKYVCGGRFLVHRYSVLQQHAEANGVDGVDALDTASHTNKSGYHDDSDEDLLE
Text: To further examine whether GSTpro was internalized, rather than only binding to the cell exterior, extracellularly bound ligand was removed by washing cells in PBS acidified to pH 2.0 with HCl supplemented with 0.03 M sucrose and 10% FCS immediately before fixation.
It was not clear whether the detected ligand signal was only due to GSTpro binding to sortilin, or whether sortilin would be subsequently internalized. To determine if GSTpro was endocytosed after sortilin binding, we performed immunocytochemical staining with and without detergent (Fig. 6a, b, respectively). […] However, alternative interpretations are also possible (see discussion). […] We investigated if GSTpro was bound to the cell surface by using an acid wash to remove surface bound GSTpro. Cells were washed in PBS, pH 2.0 immediately before fixation, to remove extracellular ligand bound to receptors.

[1] = system: internalization-mutant sortilin; assay: GSTpro binding to HEK293 cells expressing internalization-mutant sortilin; format: cell-based, human; conditions: compared with wild type sortilin
Method: HEK 293 cells were grown in DMEM with 10% fetal bovine serum. They were transfected with plasmids either encoding wild type sortilin, or sortilin with a mutation that renders it endocytosis deficient, or an empty control vector according to manufacturer’s instructions using 20 µg lipofectamine (Thermo Fischer Scientific) with 8 µg DNA on […] per 6 cm, poly-lysine coated dish. The cells were initially plated into 24-well dishes after transfection. That intermediate step rendered more uniform cell numbers in the 96-well dishes that were used to run the actual assay. 24 h later, cells were split into black opaque-walled, clear-bottom 96 well dishes at 42000 cells in 80 µl medium/well. […]
The fixed cells were washed with PBS for 15 min, followed by two 15 min washes with PBS with 0.1% Triton X-100. […] Wells to be evaluated for blocking of the sortilin-GSTpro interaction by antibodies were only stained with an antibody against the pro domain of proNGF in 10% FBS at a dilution of 1:1500 (Millipore (N-term) clone EPI318Y, Rabbit Monoclonal Antibody Catalog Number: #04-1142). […]
The following day, wells were washed 3 × 15 min with PBS/0.1% Triton X-100. […] Cellular fluorescence was quantified using an array scanner and the “Neuronal Profiler” Bioapplication (Thermo Fisher Scientific) as described below.

B1: GSTpro: fusion of Glutathione S-transferase (GST) merged at the C-terminal of GST to the pro part (19–121) of human proNGF (protein)
chain: EPHSESNVPAGHTIPQAHWTKLQHSLDTALRRARSAPAAAIAARVAGQTRNITVDPRLFKKRRLRSPRVLFSTQPPREAADTQDLDFEVGGAAPFNRTHRSKR
modifications: left off: GST, N-terminal, kept
notes: fusion of Glutathione S-transferase (GST) merged at the C-terminal of GST to the pro part (19–121) of human proNGF
fraction of GSTpro signal removed by acid wash (in words) (sortilin): only removes a small fraction of the GSTpro signal | reduction of GSTpro signal by acid wash (sortilin; data not shown): 20% | GSTpro signal in internalization-mutant versus wt sortilin cells (in words) [1]: stronger GSTpro signal than wild type sortilin; also recorded: slightly higher signal
